According to paper PMC6590058:

T1: IRF1 (UniProt P10914 1-325)
T1 sequence: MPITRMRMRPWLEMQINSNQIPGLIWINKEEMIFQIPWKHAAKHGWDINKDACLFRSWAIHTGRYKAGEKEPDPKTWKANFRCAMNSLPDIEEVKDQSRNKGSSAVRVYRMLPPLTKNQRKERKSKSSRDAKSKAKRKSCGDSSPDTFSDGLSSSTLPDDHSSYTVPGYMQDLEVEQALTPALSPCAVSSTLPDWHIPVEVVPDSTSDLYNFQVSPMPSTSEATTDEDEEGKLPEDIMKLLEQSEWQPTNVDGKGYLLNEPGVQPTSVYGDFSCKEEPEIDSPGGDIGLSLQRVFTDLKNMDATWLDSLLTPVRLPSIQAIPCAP


Columns and labels:
SMAD4 = SMAD4 (UniProt Q13485 1-552); experiment: EMSA
IRF1 = molecular target: T1, IRF1; experiment: EMSA

Sequence of SMAD4 (Q13485 whole entry): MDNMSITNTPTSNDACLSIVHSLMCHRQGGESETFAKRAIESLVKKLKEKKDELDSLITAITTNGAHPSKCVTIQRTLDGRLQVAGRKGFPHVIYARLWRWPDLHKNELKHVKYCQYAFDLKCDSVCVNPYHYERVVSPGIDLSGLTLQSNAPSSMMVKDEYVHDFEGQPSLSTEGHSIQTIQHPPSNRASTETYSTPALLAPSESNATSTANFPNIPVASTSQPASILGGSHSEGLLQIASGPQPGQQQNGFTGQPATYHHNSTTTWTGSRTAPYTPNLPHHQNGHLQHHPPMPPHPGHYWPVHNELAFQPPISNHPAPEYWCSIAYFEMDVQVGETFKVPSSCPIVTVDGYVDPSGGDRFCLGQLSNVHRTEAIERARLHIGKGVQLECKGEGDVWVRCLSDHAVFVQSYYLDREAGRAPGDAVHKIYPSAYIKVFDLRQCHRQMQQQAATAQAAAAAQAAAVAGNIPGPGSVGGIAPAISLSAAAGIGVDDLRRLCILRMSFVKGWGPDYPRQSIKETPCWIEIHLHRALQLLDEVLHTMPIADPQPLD

Binder | binding result (SMAD4) | binding result (IRF1)
IFI6-ISRE-25 (dsDNA) DNA 1: GAGAGGGGAAAATGAAACTGCAGAG DNA 2: CTCTGCAGTTTCATTTTCCCCTCTC | no binding | binds
HAMP-BRE-25 (dsDNA) DNA 1: TCTCCCGCCTTTTCGGCGCCACCAC DNA 2: GTGGTGGCGCCGAAAAGGCGGGAGA | binds | no binding
